± gives the standard deviation of the averaged measurements.
system: Saccharomyces cerevisiae; experiment: protein stability index of tFT-peptide fusion (C-terminal peptide) (PSI (0-1 scale)); higher = more stable (slower turnover); conditions: genetic background: wild type; temperature: 30 C
Procedure: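 Multiplexed protein stability (MPS) profiling in S. cerevisiae. Random 12-aa peptides (tFT-X12 library) are fused to the C-terminus of a sfGFP-mCherry tandem fluorescent timer, after mCherry and a GGGS linker. Cells are FACS-sorted into 8 mCherry/sfGFP bins and deep-sequenced. The protein stability index (PSI) is the read-weighted bin average, scaled from 0 (unstable) to 1 (stable). Only peptides with >10 reads are reported; cells were grown at 30 °C in SC-His with glucose.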
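Also: PSI is a weighted mean of sequencing reads over stability bins, variants kept only with over 10 reads, mCherry proximal and sfGFP distal, peptide attached via GGGS linker.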

Sequence | protein stability index
EKESERGREKDS | 0.747 ± 0.12
EKIKKTEKNKNK | 0.6755 ± 0.0042
EKKEGEREKQED | 0.751 ± 0.15
EKKKKKKEEREK | 0.728 ± 0.16
EKKKKKPKKKRK | 0.687 ± 0.026
EKKKKKTAKQLK | 0.671 ± 0.085
EKKKKTKKEKKK | 0.677 ± 0.0082
EKKLKNEEKKEI | 0.717 ± 0.04
EKLRGRKKGELQ | 0.668 ± 0.036
EKQICKVVKIKE | 0.777 ± 0.048
EKRAKKKVKIII | 0.62 ± 0.035
EKRDEGAGKGEQ | 0.63 ± 0.014
EKSQMPPAPAPK | 0.703 ± 0.04
EKVASLVTIFDM | 0.695 ± 0.024
ELASLSPCCMGM | 0.762 ± 0.15
ELDFVVNKIQDW | 0.828 ± 0.096
ELFGGQRLARNY | 0.637 ± 0.057
ELTLTVFQVGEE | 0.602 ± 0.025
ELVGRRAFRASR | 0.693 ± 0.12
ENANWHSKNMSK | 0.723 ± 0.071
ENEKKKKNKNKN | 0.7 ± 0.049
ENIENGRPKTEP | 0.644 ± 0.012
ENKTNKEKQQKQ | 0.691 ± 0.012
EPCIVCPMSRQG | 0.773 ± 0.11
EPGGSKRSGGRL | 0.686 ± 0.03

Sequence | protein stability index
EPWTEQPKLDSR | 0.936 ± 0.091
EPYHYAWTQRSW | 0.698 ± 0.015
EQKVRSPIEMML | 0.591 ± 0.0064
EQQLSHENMQFK | 0.68 ± 0.01
EQRRAGPAEVTK | 0.694 ± 0.04
EQSWAIQKVRQG | 0.737 ± 0.025
ERARGGRGVGGN | 0.678 ± 0.033
ERARGKGAGKAE | 0.688 ± 0.019
ERERQREKEKLK | 0.6735 ± 0.0038
ERFRWRRNRSLG | 0.672 ± 0.16
ERGEEESGRSGS | 0.7225 ± 0.0046
ERGGWGVGSEVG | 0.719 ± 0.03
ERGKRSTEWARK | 0.681 ± 0.042
ERGRRPAGGGEK | 0.719 ± 0.028
ERIGVEERKGLE | 0.658 ± 0.021
ERKDPNTNKVKS | 0.678 ± 0.0083
ERKKKKKERARG | 0.767 ± 0.1
ERNKKKNNQVNK | 0.619 ± 0.054
ERNNTICREIIE | 0.686 ± 0.026
ERRELSAHVYLD | 0.665 ± 0.1
ERRGGRKGRGRE | 0.662 ± 0.02
ERRGSLSWPIPP | 0.722 ± 0.036
ERSKTMVAGGEE | 0.686 ± 0.062
ERVMMKNDSIVT | 0.623 ± 0.1
ESKATIRTRARN | 0.74 ± 0.028

Sequence | protein stability index
ESKCADNKMKRK | 0.652 ± 0.022
ESQKKEKTKPKN | 0.655 ± 0.023
ESRWRSPCFIIW | 0.626 ± 0.11
ESSKVRNLELLK | 0.669 ± 0.017
ESTKKQSTAPKN | 0.714 ± 0.043
ESVGLGDRRVCS | 0.65 ± 0.024
ETEKHGIRRRQG | 0.644 ± 0.027
ETKKKTNKRAEK | 0.689 ± 0.053
ETRKINELRAKK | 0.642 ± 0.087
ETRKKKLTNSRT | 0.622 ± 0.071
EVAFGLLPPHDS | 0.701 ± 0.019
EVESYVVSGDRW | 0.608 ± 0.042
EVFGNVREAHCV | 0.707 ± 0.019
EVVEDGAEEVGR | 0.685 ± 0.053
EVWSYCPAFFVD | 0.736 ± 0.016
EWALAESGYDEP | 0.746 ± 0.05
EWCQVGGRGFLG | 0.74 ± 0.021
EWEKKKRGNTRK | 0.642 ± 0.022
EWRDSCLLKWWV | 0.725 ± 0.015
EWRWCESKIITV | 0.625 ± 0.028
EWVLRTLVDTNW | 0.728 ± 0.0075
EWVSGWIVRWWR | 0.679 ± 0.076
EYAVDAERLRTT | 0.72 ± 0.053
EYDIKRRKRRNT | 0.67 ± 0.23
EYISNLLSSPEP | 0.633 ± 0.013

Sequence | protein stability index
EYRCVAQHSLLH | 0.743 ± 0.049
EYRRADYCLGVG | 0.547 ± 0.011
FAAKASVLRMRR | 0.605 ± 0.029
FAFPQASHPVRI | 0.664 ± 0.063
FAGGAVNIGVVG | 0.71 ± 0.015
FAGGPSIAAHVL | 0.712 ± 0.2
FAIFSGMSFGVY | 0.693 ± 0.05
FALLVSDISGRI | 0.811 ± 0.03
FAPCSPKAVFCS | 0.589 ± 0.037
FAPSAGGSLAGP | 0.698 ± 0.033
FARPQCLPVPLP | 0.6555 ± 0.001
FARQSMLSKLQI | 0.587 ± 0.033
FASTEDDKKNTT | 0.6746 ± 0.0029
FAWSPPACFIPS | 0.654 ± 0.011
FAWYSFYSPPPR | 0.667 ± 0.0048
FCGFLVLGSFPV | 0.664 ± 0.072
FCLIHCIVPFPV | 0.507 ± 0.093
FCNPHVGGIRRA | 0.684 ± 0.05
FCPVGVFCGIFG | 0.644 ± 0.029
FCRLSHYLSASP | 0.687 ± 0.17
FCSVTLPSRSCV | 0.727 ± 0.098
FDCMVRVRTTVV | 0.544 ± 0.027
FDLVFRPVLGLL | 0.6246 ± 0.0052
